The supplement of paper PMC9170038

What follows are sequences tested on K4 kissing-loop RNA reporter (assay: apparent KD of K4 kissing-loop reporter; higher = weaker reporter binding). Details: Eterna round: R107; input ligand: theophylline 20 uM.
Protocol: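 RNA-MaP round R107: designed RNA switches with theophylline, tryptophan, arginine or FMN aptamers are transcribed on-chip within common flanks. They are titrated with a labelled K4 kissing-loop RNA reporter in RNA-MaP buffer (100 mM Tris pH 7.5, 80 mM KCl, 4 mM MgCl2), without ligand or with the indicated ligand. Median apparent KD per design.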
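Note: bound reporter read as fluorescence of individual clusters on recovered sequencing chips by microscopy, with normalized cluster intensities fitted with a binding model.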

Sequence | apparent KD of K4 kissing-loop reporter
UUAAUAAUUCAAGGAUAUGUUUUUUUUUUCGAGUGAUGUUCGGAAUUAAUAAAUUUAAAAGAUUAUACAGAAGGUGAUAAAUAGU [Cynwulf-mod#1] | 103 nM
CCAUCGCUAUUCGAUACCAGCUACUUAGUGAUGUUAAGUUAAAAUAAAUUGUAGAUUAAAAGCCCUUGGCAGCGAAUAGUGAUGG [Theophylline B K4 19] | 103 nM
UAAAUAAUAAAACGAGUGAUGUUCGACGAUACCAGCCUCGAUAGAGGCCCUUGGCAGCGUAAAUGAUCACAAAGCCAAGGUAUAA [#01 K4 Theophylline A Exclusion] | 199 nM
GGUAUCCAGUACCAUUGCGUUAAAACAGAAGGAGCGAGAAUAGACUCAGGUAGGUCGCUGUUUAUAGUCGAGUGAUGUUCGAAUC [Same State Arginine A GF 14] | 315 nM
AAAAUAAAUCAGUGAUGUUGGUAUCUGGAUACCAGCGAUAAUAAUCGCCCUUGGCAGCCAUGGACGUACAAAAUAAGUACGUCCU [MatMod 18 - Jieux - Same State - Theophylline A] | 337 nM
AAAAUUAAGGCCGAAUAAACUUAUUUCAUACGAGGACCGGUACGGCCGCCACUCGAGUCAAGUGAUGUUUGACUAUCUAUUAUUA [JR_ExcTryptoA_Sub009] | 83 nM
UGUACCGAGUCAGGAUAUGGCGUCGAAAGACGAAUCCUAGUGAUGUUAGUGAUCUGCGAAAGCAGUCCAGAAGGGACUUGGUACU [FmnBS 26 U50] | 307 nM
GCAGUGAUGUUGCGGAUGUACAGUGGCGUGCGAGGACCGGUACGGCCGCCACUCGUACAGAGCCAGCUAAUACAUCGAUAGGUGA [whbob_SS_Tryp_A_m6] | 296 nM
CGUUUAUAGCAGGAUACCAGUACGGAUAAGGUACGUUAAUAGUAGAGUGAUGUUCUAAAGUACCCUUGGCAGCUUAGAGUGAGUG [#20 K4 Theophylline B Exclusion] | 126 nM
CAUAUAUAUAGAGGAUAUCGAGUAGAGUGAUGUUCUGCCUGGGUUGGCUCGCAAGGGCCUUCCCAGCGAGAAGGCUAUAUAUAUG [harrys-mod#1ED5.33] | 431 nM
CAUACCCAGUGAUGUUGGGUCGGUACCGAUACCAGUCGUACAGCCGACCCUUGGCAGCGGUAGCAUUGCCCGGCGUCGGCUUGUG [theeternabot_exclusion_KL_Theo_A_17] | 445 nM

Same assay, conditions: Eterna round: R107; input ligand: tryptophan 2.4 mM

Sequence | apparent KD of K4 kissing-loop reporter
UGUCAUUGGUCUGAUACCAGAAGAAUCUGGAGUGAUGUUCCAAGUCGAUCAAAAGAUCGCUUCCCUUGGCAGCAGACCGAUGACU [TheoBS 24 #SwitchBubble 13 #StaticStem] | 298 nM
UUAAGGGUCCGAGGAUAUCUCCCAGUGAUGUUGGGCGAUACGGCCCUUAAGACUAAUGGUUGAAGGAGAGAAGGCGGCUCCCGAU [Edmaisle] | 112 nM
GCGGCCCAGCCGGAUACCAGUGACCCGCUGGGAACCGCGGGCCCAGAGUGAUGUUCGGGACACCCUUGGCAGCCGCCUGGGACGC [#2 Same State - Theophylline B Attempt #17 (HarryS)] | 193 nM
CUGAGCCUGACGAAAGUCAGGCUCUGCGAGCGAGGACCGGUACGGCCGCCACUCGGUGCAGUGAUGUUGCAUGGCCGCAAGGCCG [#2 Exclusion - Tryptophan A Attempt #18 (HarryS)] | 262 nM
AGCCGAAAGGCGAGUGCUGUCACUCCGGAAGGAGCGCUCGAAAGAGCAGGUAGGUCGCCGGAGUGAUGUUCCGGUGCAGCACUCA [Omei KL Arginine A Exc B v5] | 1100 nM
AAGUGAUGUUGUAGUGAUGUUGUGAUGUUGCAGGAUAUAUAGUGAUGUAGAAGGGUAUGUACAGAUUUUUUUUUUGAGUGAUGUU [ffdcmullin] | 81.4 nM
GGAUCCACCAGUGAUGUUGGAGAAAACUCUAAGGAUAUGACGAAAGUCAGAAGGUGGUAGACUGGUCAAAGUCCGGUCGGAUCCA [FmnA10 U30+U66] | 249 nM
GUGCGGCUAGUGAUGUUGGUUGCGUGGGAAGGAGCGCAGAAACAUGCAGGUAGGUCGCCCACACCUCUGAAAGGAGGUUAAUUCA [Diusdige] | 248 nM
UGGAGUUGACGAAAAGUCAACUCCCGAGAAGGAGCGGACGAAAGUCCAGGUAGGUCGCUCGCUACCAGUGAUGUUGGUACGUAAA | 101 nM
AACAAGGGAUGUCAGUGAUGUUGUACGUCGCGAGGACCGGUACGGCCGCCACUCGUAAUACACAGAUGAGGGUUCUUUCUCUGAU [theeternabot_sameState_KL_Trp_A_49] | 228 nM
UAUAUAUGAUGUGAUACCAGUGAAAAGCCAGUGAUGUUGGAGGAGCUGGUAUAUAAAUAAGACCCUUGGCAGCACAAUCACGUAU [#01 K4 Theophylline B Exclusion] | 214 nM
UUUUUGGUUUAGAGUGAUGUUCCUUGUAAUCGAGGACCGGUACGGCCGCCACUCGAUUAGAAAAGAAAAGAAAAGAGUGAUGUUU [BDazzled - #2 SS Tryptophan A] | 243 nM
AUUAUAAAGUCGGCCGCCACUGAGAGUAGUGAUGUUACUCUAUUCCUUUAGAUAUUAUAUUUUAUCAGGACCGGGACAUCAGAUU [JR_ExcTryptoB_Sub019] | 228 nM
GCUAUGGUAGGAAGGAGCGCUUGCUCGGUCAUAUGAGUGAUGUUCGAGACUGAGCAUUUAUAGCAGGUAGGUCGCCUACUAUAGC [Arginine B K4 9] | 177 nM
CGUUUAUAGCAGGAUACCAGUACCCAUAAAGUACGUUAAUAGUAGAGUGAUGUUCUAAAGUACCCUUGGCAGCUUCCCGUGAGUG [ExTheophylB.T] | 67.8 nM
GUUGUAUACUGAAGGAGCGAGUAGUGGAAACAUAAACUCAUUGCGAGUGAUGUUCGCGGUACUCAGGUAGGUCGCGGUAAUCGUA [Exclusion Arginine B Gf 11] | 403 nM
UGUCAUUGGUCGGCCGCCACUUCAAGGUCAAAGACCAGAGUGAUGUUCUUGCACAAAGUGCUUAGAAGGACCGGGACCGAUGACU [TrypBS 13 #SwitchBubble #K4Middle] | 622 nM
GUUACGCAUGGAAGGAGCGCUCUCAGGCUUAAUAACACAGUGAUGUUGUGAAUUUGCCUAAAGCAGGUAGGUCGCCAUGUGUAAC [Ex Arginine B K4 9] | 392 nM
AGAGUCGGCUGUGAUACCAGUCGUAUUACAACAUGUCGCAGUGAUGUUGCGAGAUAGGAUGACCCUUGGCAGCACUCAGUACGAU [Same State Theophylline B GF 8] | 323 nM
AAAACUAUCAGAAGGAGCGUGGAAUAUACAUCUAUAUUUAAUACGAGUGAUGUUCGUAAUUCACAGGUAGGUCGCUGAUCAAUAA [whbob_Ex_Arginine_B_2th153] | 206 nM
AAGUGUGUGGCGGCCGCCACUAGAAUCCAGUGAUGUUGGAGUAAUCAAAUAAAUAAUAAUAAACAUAGGACCGGGCCAUAUAGAA [Same State - Tryptophan B (Freestyle 2)] | 129 nM

Sequence | apparent KD of K4 kissing-loop reporter
AGCGGCCAGUCGGCCGCCACUCCAGGCAGUGAUGUUGCGAAGUUUCUACUAGAGUGAUGUUCUAAGAGGACCGGGACUGACGUAA [Exclusion Tryptophan B Gf 9] | 199 nM
AUGCUGUCGGCGUUAAAGUAGUAAUGUGAUACCAGAAAUGCUGUGUUCCCUUGGCAGCACAUUCUUACAGACAGUGAUGUUGUCU [theeternabot_exclusion_KL_Theo_A_8] | 336 nM
GCUAGCAUGGCAGGAUAUAGCAAUAGGAGUGAUGUUCCUUGGUAGGUGAGUGAUGUUCACUACCAACUAGAAGGGCCAUGCUAGC | 129 nM
UGACUGGACUGAAGGAGCGCGCGAGACAAAGUCUCGAACUCCUAGUGAUGUUAGGAAAUAACGCAGGUAGGUCGCAGUCUAGUCU [ArgBS 10 #SwitchBubble #StaticStem #DoubleMagnet] | 241 nM
GUGAGGAUCCGAAGGAGCGUCCGCAAUCCAGUGAUGUUGGGUGUUGGUUAUAUUUAACGAGGACAGGUAGGUCGCGGAUUUUCAA [Same State Arginie B GF 22] | 159 nM
CGUAGCAGAUGAAGGAGCGGCUACCUGUAUCAGGCAACUGCCUGAGUGAUGUUCAGGUAUAGCCAGGUAGGUCGCAUCUGCUACG [Arg B Ex t9b] | 212 nM
AGGUGGGACGUAGGAUAUCCCUAAUGAUUUACUUCCUGGUUGCUACGCUUCCAGUGAUGUUGGAAGGGAGAAGGACGGGCGAGUU [Riatbive] | 222 nM
AGACUUCACCGAAGGAGCGACGUGGCCUAGUGAUGUUAGGCACGAGAGAAAUCUCGUGUACGUCAGGUAGGUCGCGGUGAAGUCA [Omei KL Arginine B SS C v7] | 816 nM
UAAAAUAAAUAAUAGAGAGCGUUACUCGAAGGAGCGACGAAUUCGUCAGGUAGGUCGCGAGUGAUGUUCGCAAAUACGCUCUCAU [AK2 Exc Arginine A] | 682 nM
AAUGUACAGGGAAGGAGCGUCGUCCAGUGAUGUUGGAGUUAAAUACCAGUGAUGUUGGUUAGGCAGGUAGGUCGCCCUAAAGUAG [#09 K4 Arginine B Exclusion] | 82.1 nM
UUAAUAAUUCAAGGAUAUGUUUUUUUUUUCGAGUGAUGUUCGGAAUUAAUAAAUUUAAAAGAUUAUACAGAAGGUGAUAAAUAGU [Cynwulf-mod#1] | 88.6 nM
CCAUCGCUAUUCGAUACCAGCUACUUAGUGAUGUUAAGUUAAAAUAAAUUGUAGAUUAAAAGCCCUUGGCAGCGAAUAGUGAUGG [Theophylline B K4 19] | 136 nM
UAAAUAAUAAAACGAGUGAUGUUCGACGAUACCAGCCUCGAUAGAGGCCCUUGGCAGCGUAAAUGAUCACAAAGCCAAGGUAUAA [#01 K4 Theophylline A Exclusion] | 138 nM
GGUAUCCAGUACCAUUGCGUUAAAACAGAAGGAGCGAGAAUAGACUCAGGUAGGUCGCUGUUUAUAGUCGAGUGAUGUUCGAAUC [Same State Arginine A GF 14] | 188 nM
AAAAUAAAUCAGUGAUGUUGGUAUCUGGAUACCAGCGAUAAUAAUCGCCCUUGGCAGCCAUGGACGUACAAAAUAAGUACGUCCU [MatMod 18 - Jieux - Same State - Theophylline A] | 200 nM
AAAAUUAAGGCCGAAUAAACUUAUUUCAUACGAGGACCGGUACGGCCGCCACUCGAGUCAAGUGAUGUUUGACUAUCUAUUAUUA [JR_ExcTryptoA_Sub009] | 54 nM
UGUACCGAGUCAGGAUAUGGCGUCGAAAGACGAAUCCUAGUGAUGUUAGUGAUCUGCGAAAGCAGUCCAGAAGGGACUUGGUACU [FmnBS 26 U50] | 344 nM
GCAGUGAUGUUGCGGAUGUACAGUGGCGUGCGAGGACCGGUACGGCCGCCACUCGUACAGAGCCAGCUAAUACAUCGAUAGGUGA [whbob_SS_Tryp_A_m6] | 322 nM
CGUUUAUAGCAGGAUACCAGUACGGAUAAGGUACGUUAAUAGUAGAGUGAUGUUCUAAAGUACCCUUGGCAGCUUAGAGUGAGUG [#20 K4 Theophylline B Exclusion] | 92.2 nM
CAUAUAUAUAGAGGAUAUCGAGUAGAGUGAUGUUCUGCCUGGGUUGGCUCGCAAGGGCCUUCCCAGCGAGAAGGCUAUAUAUAUG [harrys-mod#1ED5.33] | 482 nM
CAUACCCAGUGAUGUUGGGUCGGUACCGAUACCAGUCGUACAGCCGACCCUUGGCAGCGGUAGCAUUGCCCGGCGUCGGCUUGUG [theeternabot_exclusion_KL_Theo_A_17] | 381 nM
